Patent US20140018288A1, “X-DING-CD4 Peptide” (priority 2012, published 2014)
Where two headings read alike, the source gives them in different places.

System: HIV-1 LTR promoter
Experiment: Rapid Suppression Assay (RSA), PMA-induced HIV-1 LTR-driven luciferase in 1G5 cells
Assay type: cell-based
Conditions: RSA; for IC50: PMA 5 ng/ml, read-out: IC50, HIV-1 LTR promoter inhibition
Excerpt: We applied the cell based Rapid Suppression Assay (RSA) for testing X-DING-CD4-induced inhibition of HIV-1 LTR promoter (Lesner et al., 2004; Lesner et al., 2005). Briefly, 1 G5 cells (obtained through the NIH AIDS Research and Reagent Program, Division of AIDS, NIAID, NIH) that are stably transfected with an inducible luciferase gene driven by HIV-1 LTR (Aguilar-Cordova et al., 1994) were washed in PBS, resuspended in hybridoma medium to concentration of 5×10^6cells/ml. For purpose of generating control titration curves, 100 μl aliquots of 1G5 cells were mixed with 100 μl cell culture medium either supplemented with various amount of rX-DING-CD4^pep (SEQ ID No: 1) or no rX-DING-CD4^pep, and incubated for three hours at 37° C. Subsequently, all cells were induced with phorbol 12-myristate 13-acetate (PMA) at a concentration of 5 ng/ml. Two control tubes containing 1G5 cells without rX-DING-CD4^pep treatment were resuspended in hybridoma medium with or without PMA. Three hours later cells were collected by centrifugation and lysed in the same tubes using Reporter Lysis buffer (Promega). The expression levels of luciferase protein in the lysates were determined according to the manufacturer's protocol. The X-DING-CD4^pep inhibition values were established based on the formula: [(LUC1-LUC0)×100/Z]−100; where LUC1 is the value obtained from cells induced by PMA and treated with a specific dilution of X-DING-CD4^pep; and LUC0 is the basal value obtained from the uninduced and untreated cells; Z is the absolute luciferase induction by PMA calculated as Z=LUCmax-LUCO3 where LUCmax is the value of 100% luciferase expression in PMA induced X-DING-CD4^pep untreated cells.
One aspect of the present invention is related to X-DING-CD4 peptide derivatives. Here we obtained 15 derivatives SED ID NOS: 1-15 by recombination or in vitro synthesis. We tested the biological activity of some these derivatives by rapid suppression assay (RSA). In XD-4M, the third amino acid glycine in the native X-DING-CD4 peptide was substituted with the polar amino acid glutamine. In XD-7, the two amino acids, cysteine and valine, replaced the three amino acids, glycine, serine and aspartic acid, in the native X-DING-CD4 peptide. In XD-12 and XD-12sh, the 69th amino acid glutamic acid in the native X-DING-CD4 peptide was methylated. In XD-9, the 69th amino acid glutamic acid in the native X-DING-CD4 peptide was substituted with the amino acid glutamine. The RSA procedure was similar to that described in Example 2. The inhibitory values are plotted in FIG. 5.
We performed the rapid suppression assay (RSA) which tests directly the inhibition of HIV-1 transcription (similar to the procedure described in Example 2), the MAGI assay which tests the inhibition of HIV-1 replication in a single cycle infection (similar to the procedure described in Example 2), and the HIV-1 infection inhibition assay in human PBLs.

[1] = 1G5 cells, listed as rX-DING-CD4

B1: MADINGGGATLPQPLYQTSGVLTAGFAPYIGVGSGKGKLAFLNNDYSQFGTGTKNVHWAGSDSKLTSTELSTYASTKQAAWGKLIQVPSVATSVAIPFNKAGSNAVDLSVDQLCGVFSGRITTWNQ (protein, listed as Homo sapiens)
chain: MADINGGGATLPQPLYQTSGVLTAGFAPYIGVGSGKGKLAFLNNDYSQFGTGTKNVHWAGSDSKLTSTELSTYASTKQAAWGKLIQVPSVATSVAIPFNKAGSNAVDLSVDQLCGVFSGRITTWNQ
concentration achieving inhibition of 90% HIV-1 LTR transcription: 115.1 nM
IC95, HIV-1 LTR promoter inhibition, mass concentration (1G5 cells): 1.52 µg/mL
IC95, inhibitory dose blocking 95% transcription events (1G5 cells): about 115.1 nM
IC50 [1]: 8.2 nM
IC50 (1G5 cells): ~8.18 nM
IC95, HIV-1 LTR promoter inhibition, mass concentration [1]: (1.514 μg/ml)
IC50, HIV-1 LTR promoter inhibition, mass concentration (Table 1): (0.107 ug/ml)
IC95, HIV-1 LTR promoter inhibition (Table 1): 116 nM
